Experiment: soluble fraction after stress (log2 fold change); higher = more stays soluble; pooled small domains, quantitative proteomics
Conditions: stress: 50 degC
How it was run: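 Pooled custom libraries of small protein domains were each held under stress at 50°C. The read-out, high-throughput quantitative proteomics, tracked how much of each protein stayed soluble. This is reported as a base-two log fold change used to indicate aggregation propensity. Higher values mean more protein remains in solution.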

Point of comparison: “HMGDGAWQQGEGGRWWYKYNNGTYPKDRVVTIGGKKYGFDSEGWMLSDTTKAFGGTTYSFAADGVATAQA”, “soluble fraction (log2)” value -0.0259. Against it:
- HMPYNNLADAPASWKKLDDTPLTLGQVNWIAKIYDALVAKGMEKGAAAGTAISRFKKSFKVADGKWVQV — within 0.2 log units, -0.0698
- HMGIFAQTTKWRDIYTVKKKDTIFGIANKYGLSLPELMEANPEMKQEGYMLQKGTTLFIPFASD — lower, -0.483
- HMHSVIALTIPADYAGLRLDQALAKLLPNWSRSRLQTWIAENRVILDGQITTIKQKVWGNELIQISPQD — lower, -1.45
- HMKESFAQLFSLLTPTEQKVAALISQGFSNKDIAAKMFISLSTVKTHTNHIFAKMGVANRNALVAKVNN — lower, -1.08
- HMSVHSAELKKLKAHLLGIIGRELETQPSTENREEMVRQILHQSYESLRLNLPMQLKEELFNEILAEVL — higher, 0.353
- HMHLIPRESTYEIDGRRFVVDSVNLDFGKVSLQDITFRNATGFPIFRSESIEFMRRLVEISEAQRIAEL — within 0.2 log units, -0.00889
- HMTTIPAGRQQYILSLIRREGTVTVSRLAQELEVSELTIRRDLDQMAARNLVERTHGGATERR — within 0.2 log units, -0.138
- HMQDLEIKINLGMTYYEVREAIGSPDIIDKINQYGRDFQMWTYYIDDKTKRYYFEDHLLTKI — lower, -3.33
- HMEANAYFDAYPDVAAEWARLSGSDEGKATLSAIGVTTPQQFAQYHYTTFGSKENRNAPVGYTP — within 0.2 log units, 0.0756
- HMADDFISTLFSEGIIIDTEVKQFAERQGSPLQFVRHIASNLPEPRDIITMGEVRSVMREGA — within 0.2 log units, -0.149
- HMAGAPANLAARLREQILQGAYHDGQRLPAERHLAAEHGVSRGTVREALRLLEQGALLTRKRGSGSYVTYP — lower, -0.314
- HMSSAVKRALAELPENWRMIVYYRVVEGLSYAEIAKVLDIPDGSVMSGLHRGKKMLRGLLLEYAQQEGYD — lower, -1.72
- HMGPEISEDAKVVFDRLKNHDEILLNNFKSEFDLSNKKWDKIIKELRGNDLISIIKSEDGNLFIKP — within 0.2 log units, -0.00901
- HMKASEMKKGQTIKIDGVLYVIVDFQHVKLSKGGAVYQTKLRNLAAGGIRDIRIRAEEVLEDA — lower, -0.311
- HMDYHTIQTGDKGDEVLRLQQALAEYGYYEGDLDGRFGQQTRRAVERFQYSHGLTADGIAGRNTLSVLYD — within 0.2 log units, -0.101
- HMKSVTVIFKESGNVVSSKKLSVVATAQYVDKSRITAPAGYRIATTDSKLKISENNTVTVEVK — higher, 0.212
- HMTESIKRDEAIRLNNGRIYTLDAAKIGTNEYEVMLFNPRTGEEIDSAKTSTEADAILQFDRLRRMYHR — within 0.2 log units, 0.1
- HMTRDAQLAALERLMDDPSPVVRKAVLKGVQAAGTEGLLWLQQLSKNQTLGPYALALLTELR — lower, -0.412
- HMNEPMITEVKRINYGSIKEIAKNLDVFKGKNGTVIIDERTNTLILTDLSENIEKMLWSIEITD — lower, -0.896
- HMDFDLIAIFEEQFARALSPIEINIIKEWKNSNYSDDMIVKALKEAVKSQVFNFRYIERILINWSQNG — lower, -0.387
- HMRTEGNLGAKVRVLRRSQGMTQAELARRLGISPSYLNLIEHNRRSFTADLLVKLAKILPVNLKT — lower, -1.36
- HMVWPETEAIVTEDFIGKKRSEVQQEGVIFEFFGEGDMVIDQLPRGGVTLNESGRVWIYLGEDTF — lower, -0.423
- HMLDYQLQVFKDTLEANRKHRGQKIVFIHGKGEGVLRRALIHALNYQYKKFTYQDASFREYGYGATQVTI — within 0.2 log units, -0.103
- HMLTPSRVLPYLFEDSFFIDTLSLEKDQVVGFLEYIDERLPPQDLMNKSKEFELIDYLINESEAYLSQ — within 0.2 log units, 0.0334
- HMDPVILDINSVKALLGISNKADFMAELSRLVVTEGDKKMIIPLAKEVGIDNVAVYKRNEIENISNYK — within 0.2 log units, -0.1
- HMNSTEQQTERFLATLTSLGGNAGNQRLQEALGWQGSTYQRIKQHLLDEGRIRTGRGRGGSVALSEATAT — within 0.2 log units, 0.143
- HMSVPRPSAVEVTSLVTGVRDLLPHLGEGYVERVLVEFGFKVDETINALLEGNLPKHLQDLDPSLTKEI — lower, -0.662

— the domain aggregation screens of Martell et al. (2025)
